This assay addresses translesion synthesis (TLS) polymerase ι (human (endogenous in K562)) (UniProt Q9UNA4). The assay is described as follows: proximity ligation.

Data on 1 substance can be found in article PMC7708082.

UniProt Q9UNA4, sequence (Q9UNA4 whole entry): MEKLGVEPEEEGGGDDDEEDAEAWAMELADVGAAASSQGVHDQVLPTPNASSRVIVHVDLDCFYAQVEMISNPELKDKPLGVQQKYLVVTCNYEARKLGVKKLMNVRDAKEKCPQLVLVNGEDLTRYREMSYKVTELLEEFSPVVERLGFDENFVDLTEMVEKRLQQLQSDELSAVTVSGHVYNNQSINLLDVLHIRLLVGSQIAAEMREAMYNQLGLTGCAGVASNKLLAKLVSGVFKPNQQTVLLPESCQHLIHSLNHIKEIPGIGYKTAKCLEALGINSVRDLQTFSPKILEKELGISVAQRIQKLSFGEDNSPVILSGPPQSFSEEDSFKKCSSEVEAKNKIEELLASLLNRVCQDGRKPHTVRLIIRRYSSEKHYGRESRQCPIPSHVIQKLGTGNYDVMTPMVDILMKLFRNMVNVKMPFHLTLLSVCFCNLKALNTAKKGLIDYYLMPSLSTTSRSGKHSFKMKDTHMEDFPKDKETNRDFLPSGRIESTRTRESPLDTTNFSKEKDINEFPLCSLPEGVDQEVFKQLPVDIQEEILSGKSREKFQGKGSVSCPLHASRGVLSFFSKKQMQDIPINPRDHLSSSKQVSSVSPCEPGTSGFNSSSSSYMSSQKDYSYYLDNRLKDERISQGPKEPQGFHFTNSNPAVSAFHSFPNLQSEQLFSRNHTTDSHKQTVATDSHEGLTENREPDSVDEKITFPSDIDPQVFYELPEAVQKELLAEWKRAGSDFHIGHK

In turn, “p53(22Q/23S) (from UniProt P04637 1-393) (natural protein)” showed a reduction in PLA-foci numbers against p53(WT) of 64%.
